Measurements taken from PMC3706991.

What was measured:
[1] = target: CD27 (human (endogenous in CD4+ T cells of blood donors)) (UniProt P26842)
[2] = target: CD27 (human (endogenous in CD4+ T cells of blood donors)) (UniProt P26842); remark: listed apart in the source

Chain of UniProt P26842 (P26842 20-260): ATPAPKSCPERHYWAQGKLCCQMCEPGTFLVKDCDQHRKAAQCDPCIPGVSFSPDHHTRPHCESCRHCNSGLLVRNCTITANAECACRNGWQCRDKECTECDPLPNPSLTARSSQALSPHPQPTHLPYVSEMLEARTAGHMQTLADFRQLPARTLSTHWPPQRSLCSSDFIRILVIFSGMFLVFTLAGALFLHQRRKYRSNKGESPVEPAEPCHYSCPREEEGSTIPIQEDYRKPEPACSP

B1: CD70 (ligand)
chain: MPEEGSGCSVRRRPYGCVLRAALVPLVAGLVICLVVCIQRFAQAQQQLPLESLGWDVAELQLNHTGPQQDPRLYWQGGPALGRSFLHGPELDKGQLRIHRDGIYMVHIQVTLAICSSTTASRHHPTTLAVGICSPASRSISLLRLSFHQGCTIASQRLTPLARGDTLCTNLTGTLLPSRNTDETFFGVQWVRP
50%: decrease in FasL expression level on CD4+ T cells (FACS) in co-culture with HB1.F3 after addition of anti-CD27 mAb [1] | HB1.F3 (NSC)-mediated apoptosis of CD4+ T cells (Annexin V/PI, FACS) in co-culture with anti-CD27 blocking mAb (LG.7F9), 0-1 ug/ml [2] | HB1.F3 (NSC)-mediated apoptosis of CD4+ T cells (Annexin V/PI, FACS) in co-culture with anti-CD70 blocking mAb (BU69), 0-1 ug/ml [2]
